# Source: the DeepSol protein solubility set
# Test: soluble on expression in E. coli; label from the status in PepcDB or PDB records
row,Sequence,soluble on expression in E. coli
1,DYKDDDDKDLKCTTNNMRVWDCTWPAPLGVSPGTVKDICIKDRFHSCHPLETTNVKIPALSPGDHEVTINYLNGFQSKFTLNEKDVSLIPETPEILDLSADFFTSSLLLKWNDRGSALPHPSNATWEIKVLQNPRTEPVALVLLNTMLSGKDTVQHWNWTSDLPLQCATHSVSIRWHIDSPHFSGYKEWSDWSPLKNISWIRNTETNVFPQDKVVLAGSNMTICCMSPTKVLSGQIGNTLRPLIHLYGQTVAIHILNIPVSENSGTNIIFITDDDVYGTVVFAGYPPDVPQKLSCETHDLKEIICSWNPGRITGLVGPRNTEYTLFESISGKSAVFHRIEGLTNETYRLGVQMHPGQEIHNFTLTGRNPLGQAQSAVVINVTERVAPHDPTSLKVKDINSTVVTFSWYLPGNFTKINLLCQIEICKANSKKEVRNATIRGAEDSTYHVAVDKLNPYTAYTFRVRCSSKTFWKWSRWSDEKRHLTTEAT,soluble
2,MKFSALGDQAIIVTFGEEIKRDIYEKVQRLFQALQQHPFAGMIECVPSFTSLAVYYNVYEVWKGNERSERSHDYVRQYIKELCDSYKEEVKQDVKHISIPVCYGGEYGPDLEEVAHYHGLQVEDVIRIHSETTYFVYMLGFTPGFPYLGGLSKELETPRKETPRLQISPGSVGIGGNQTGIYPLETPGGWNIIGRTPISLFNPEEEIPTYIQSGMYLRFIPITKEEYVSLEGAKKWMLEHHHHHH,soluble
3,MSMFGKVAADVLGLSDIGSVIQPKDYDKVDADDYVMHEDGEKIYFLIKSKSDEYCFTNRALIHLDGTSAASKKRTLRRYDYYKHPISDVSLETAGTVDLDAEIKFKIGPHSYSIDVHKKHIEELKDLYKSLLAIAEICHENEMKFHYAERSLELATKVFANMRGDGANVSADFQAVNEYAFRWLTEAKKNYTVKDFGFVFDKYIQQ,not soluble
4,MTQPLRQYREKRDFRATAEPAGAARRPRAAARASEGLSFVIQRHQARRLHYDFRLEIDGVLVSWAVPKGPSRDPSVKRLAVHVEDHPLEYGGFSGDIPKGQYGAGHVDIWDSGVWIPRGDPRQGLRRGKLHFALRGRRLAGDWVLVRMSGEQDQWLLRKEDDEALEHHHHHH,soluble
5,MGSDKIHHHHHHMRNLISETKSLYKLIDFKDVQIFGDAANYTCILFLKIYKNDVFSYIFPKSTDTFTIQSVSNVDTFQEYKLPLPKPDHPWILSENKVSELIRKLSRKGIPLEIISKNIFQSLTTSADGIYFVQVESETRDTAKIRNIKNNLEFAVEKTILRKLLKGKDIRRCSVDWKGSYVVYPYLVKDDKASLITLSEIKDRYPLAYEYFKHYELQLKTREDNKLKDDENWHQYIYRKNLEKFEQKKIVTQVLASKNTFAIDLNGEFYFVGGDNAGGYGIVLNDNNQNMYYFVLALLNSNVLEFYLKNISTPFRGGYFSYGKRFIDKLPLLIPKDSRFDSVSSLSKEQMNISKKMRNFPNTDERDLLEREYDKRCQELNQMIYEIYGLNKLEITLLDDRLCQ,not soluble
6,MEHTIAVIPGSFDPITYGHLDIIERSTDRFDEIHVCVLKNSKKEGTFSLEERMDLIEQSVKHLPNVKVHQFSGLLVDYCEQVGAKTIIRGLRAVSDFEYELRLTSMNKKLNNEIETLYMMSSTNYSFISSSIVKEVAAYRADISEFVPPYVEKALKKKFKLEHHHHHH,soluble
7,MAHHHHHHMQAQMMLGQALEHYAMMDFANLVLEQCWDICYDSQLTRPELAGGALPDVKAQKMDACARKCVARHFEVLTLLSATRELREKERMQGLPPGTLTSM,not soluble
8,MSLGSGHIRAAEALQKFVVQKYPKSKTLIVDTFKYINPLIHTVVVDGYLNIVKYVPEIYGGLYRMSEHIKNIDRMSRGFSNLLTPKIHRLIQSFKPSIIVCTHPFPLQMIAHLKKHYNLDVPSIAIVTDFVNHPFWFQNNIEAYIVAHDYIKRDMIECGISEDRIFTYGLPVAPEFLKLEHHHHHH,not soluble
9,MIQKGCTPIEEGSDSEPQAETVPEEADYEAVPVEAYGLAMLRGMGWKPGKGIGNTFSQVVKPRVNSIRPKGLGLGANRMEAQDLASVGSHHPPRPDGDRENDKEGQPQGLMHGRAVVVLSGPYRGLYGKVEGLDPDNVRAMVRLAVGNRIVTVSEYCLRPVSQQEFDSHTSKPGHVSQTSTEQQNRATGTASSLKAAQNQEDSKRRQKGSEKKRKHSPDRQDGPVPKTEKAAPRNKHWLHRDLRVRFIDKLHKSGRYYNTKMTIEDVLSPDTCVCRTDEGRVLEDVREDMLETLIPKGEGHRVMVVLGPHAGKVGLLRSRDRAQSHALVQLRRENQVVELHYNAICQYMGPGDSDED,soluble
10,EPEGKPRAWVLDFKGSMDAHEVNSLREEITAVLAAAKARDQVVIRLESPGGVVHGYGLAASQLQRLRDKQIPLTVSVDKVAASGGYMMACVANKIVSAPFAILGSIGVVAQIPNLHRFLKNKDIDIELHTAGQYKRTLTMLGENTEEGRRKFREDLNETHHLFKDFVHRMRPGLDIEQVATGEHWYGVQALEKGLVD,not soluble
11,MAHHHHHHMLRRTSFNFTGRAMISRGSPEWSHRLDLKKGKKTTMMHKLGTSKPNNALQYAQMTLHDLTEWCLAYSPWPLTFGLACCAVEMMHAYASRYDLDRFGIVPRPTPRQAEIIIVSGTVTNKMAPILRNIYVQMVNPKWVISMGSCANGGGYYHFSYAVLRGCERAIPVDFWIPGCPPSAESLVFCLHTLQKKIRWHEIQKYSVRD,not soluble
12,MNNNTLSDDNLYNIENWGEGYFRINSKGNIEISKKPGKPGVELQTIVDAADRAGLHLPLLIRCSDILHDRVHRIYQAFTQAREDTCYAGNYQLVYPIKVNQEQSVVRELLKSPDNQIGLEAGSKPELMAVIGMLGDHQSTIVCNGYKDTSYIRTALIAQQMGHKVFIVIEKKSELDIILKESARLQIKPTLGVRIRLVSKSAGKWENTGGVKSKFGLNAKQVLELILQLKANDMLDCLQLMHCHLGSQIANIHDIRHCMQEVARYYIELRQLNAPIGTIDVGGGLSVDYEGTRSNKGCSMNYSLVEYATHIMLALKHLCQEAEISEPDLISESGRALTAHHAVLISNITDVEIINKAPVLPEISEDDSHVIRDIYDTYQAITDSSPTEIYNYAAHSLNEAHSLFKHGVISLQEKAKVEAFYTNICMEIKDKLDEENPSEKALLMRINECMAAKIFCNISFFQSIPDAWAIGQIFPVAPISQLNRTLSMHSILQDLTCDSDGTIKQYPGSSCVTTTLMLPSYDINNPYNIGFFLVGAYQEILGNLHNLFGDTNSLDVKLSDDGQFELDDLVSGDTVTNVLNLAHFDTKKLIQSYEKQLIKSELPKEKALSYLNELRSIFSQLTYLDGNIAQLEHHHHHH,soluble
13,MASLGEILEGRATDIYFVRTRRVAEKYGVGGKRVRMEVHAYSLPRGYEWAVYAGLEEALALLQGKPVTVYSLPEGTVFERKDPLMVVEGRFQDIILFETALLGLLRFSTSIATKAARVRLAAGRGKTVLFFGLRALHPAVQPAADRAALVGGLDGVSGVLSREYLGVEPRGTMPHALIIVFGSQVEAWRAFAETFKEETPVIALVDTFWDEREEALMAARELGEVLAGVRLDTPSSRRGRMRDIVEEVRWALDIHGYKHVKIFVSGGLDEERVAELRDVADGFGVGTTIAAAPNIDISMDVVEVHEDGEWRPRTKRGKLPGARSIVLCRGEKRIVRLGEEPEGCEPLTRKYLEEGRLAQSLPSLDEIRSYVLKQLENLGLQ,soluble
14,STFVAKDGTQIYFKDWGSGKPVLFSHGWLLDADMWEYQMEYLSSRGYRTIAFDRRGFGRSDQPWTGNDYDTFADDIAQLIEHLDLKEVTLVGFSMGGGDVARYIARHGSARVAGLVLLGAVTPLFGQKPDYPQGVPLDVFARFKTELLKDRAQFISDFNAPFYGINKGQVVSQGVQTQTLQIALLASLKATVDCVTAFAETDFRPDMAKIDVPTLVIHGDGDQIVPFETTGKVAAELIKGAELKVYKDAPHGFAVTHAQQLNEDLLAFLKRGSHHHHHH,soluble
15,MGSDKIHHHHHHMLEQTLLDIALDLSQSLPKKALYQRFMTAVNQVMPCDAVALLEYQGHELVPVAVDGLLPEVLGMGFSPEDHPRLQAIMASKQPIRFNADSELADPYDGYLVIDPKRVLDVHACIGCSLFVEGRLVGVLTLDALNVGAFDAIDDITIATLAALAAATIRNVNLLNQLDRQQYKLDDNDSVFKQKPLKKSDFIGETPCMQALKDDIRIVANSELSVIIGGETGVGKELVARSLHAQSKRRAQALVQVNCAALPDTLAESELFGHSKGAFTGAAKDRMGKFELAHQGTLFLDEVGELSLELQAKLLRVIQEGEIQRIGLDRNIHVDVRIIAASNRNLLQRVKEGLFREDLYHRLCVYPLNVPPLRERQDDIPLLCGNILTNLKHKIGLSSAKTVRLTQAAMQKLQGYPWPGNVRELQHVLMRAALKASAEAKGITVIQLHHLTFACEPMSQGLTELTAFNSNSPDSNPSTSDETFAAANREEKVEPPVISRSFNDRVADFQRQVIRQSLDDNSQVWAKAARQLQLDRGNLHRQAKRLGLIP,not soluble
16,MELNGKAPSRRQLNIQHWNTAEGARVLFVEARELPMFDLRVTFAAGSSQDGGTPGLAALTNAMLNEGVAGKDVTAIAEGFEGLGADFGNGSYRDMAVASLRSLSAKDKREPALKLFTEVAGKPTFPEDALKRIKNQMLAGFEYEKQNPGKIAGKALFGKLYGDHPYAHPSDGTAESITGISLAQLRAFHAKAYTGGNAVIALVGDLSRAEAEAIAAQVSAGLPKGPALAAPAQPALEHHHHHH,soluble
17,GPGSMGSEESNNICAYKRTISLAKIYIVLLVKTAMLRYSRLCFPKMGCEEIKRKARRVQLQPTEYLAQHRMQVWQLRFKEMGPPFSRVWVALGGKMRRRRVGRQVDVKDMRYYWRPIEPQYQRLYMSRLRIRDHSNKLRQPMRLRATNADIGSGSSSIEWERASNRKYGAMLAPPKRQDFEFRVV,not soluble
18,MGSDKIHHHHHHMIREIRITSFEGLISEMESLGKELWFRGVTNKNYSLIPGSVRFDLNGWKEVSAVLDFMASYQNHHDYIESNWELYSLMQHYGFPTRLLDWSTSVIVALYFALDGDADVDDAGSAIDRVVWGMTTGMLNNLNFLNRRVIPTAIGKATTGEKYLPSPLRKKEGDDFEFEKNPLAVKMPFTNKRVSAQKGCFTIHGSNPKGIEEIMEENGLGSELIKFVFDEEAAMAIRKTLYKLDINEDDIYQDLNSLSKRIVLVNPNWTLLVENFQILQVTDHH,not soluble
19,RVDADNTALVDLWERSVRATHDFLSEADIVELYPQVRDLYLPAVEVWVLVDDDGVAQGFIGLNQAHVEMLFVEPGLRGRGIGRRLLDHARATWPRLSVDVNEQNPQACGFYRHYGFRQTGRSATDSAGRPFPLLHMSL,not soluble
20,SGSQAGSFRKASPQTPNIDENEKRIKRLEKLKRDLQNIKNERGILQGILAKYKDLNDRTNFETFMLEMQHNQMMTDLKRMSQDISEALYKCQHLTKENQLYCCRNCHLLIESNLIQHKVRMLWKENRQLLRKQIALEECNIKTKILCKEGSQKIKDEYSRQAAGKQIIVVPGSKEEAAMSNPCA,soluble
21,MGSDKIHHHHHHMSRLLRSPQTGAGKLFSAASSENFSKQNLIDAVIKEARRKVMEAEFQKKFMQSWSRYFPGAELPIGFYYTDSAETKFMAKPPKRHRCIIGDLAKVRKGKPQCFDNNAIGCFGGKRYLGFESKLTPDFEYFLSCGIPGKIEGERYKKSPELVKEHLKHQQPLKAPGNYIIFKRWDQMENADIPSVVIFFAAPDVLSGLFTLANFDETHPHGVIAPFGAGCASIVDYPYKELNSPDPRSVLGMFDVSARPCVPSNVLTFAVPWPKFVRMVGNMDESFLITRSWNKVKTRIKKEHAKSNDK,not soluble
